Data published in the supplement of paper PMC10567573.

B1: KRT13 (parent)
chain: TSSASVTTTSNASGRRTSDVRRP
B2: PTPN9 (parent)
chain: TQHLPRECLPENLGGYVKIDLATW

Variants of: B1
Test: protein stability index of a GFP-peptide fusion (GPS, HEK-293T) (PSI 1-6); higher = more stable
Settings: c terminus: native
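Note: lentivirally expressed fusions sorted by FACS into six bins by GFP to DsRed ratio, PSI derived from sequencing read proportions per bin multiplied by bin number.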

In order of falling protein stability index:
1. FSSASVTTTSNASGRRTSDVRRP  4.09
2. TSSISVTTTSNASGRRTSDVRRP  3.97
3. TSSAHVTTTSNASGRRTSDVRRP  3.91
4. TVSASVTTTSNASGRRTSDVRRP  3.9
5. TSGASVTTTSNASGRRTSDVRRP  3.79
6. TSSLSVTTTSNASGRRTSDVRRP  3.6
7. ASSASVTTTSNASGRRTSDVRRP  3.56
8. TKSASVTTTSNASGRRTSDVRRP  3.48
9. TSSDSVTTTSNASGRRTSDVRRP  3.4
10. TSSAFVTTTSNASGRRTSDVRRP  3.27
11. TNSASVTTTSNASGRRTSDVRRP  3.25
12. TESASVTTTSNASGRRTSDVRRP  3.22
13. TSSKSVTTTSNASGRRTSDVRRP  3.21
14. TSSACVTTTSNASGRRTSDVRRP  3.15
15. YSSASVTTTSNASGRRTSDVRRP  3.12
16. TSSAEVTTTSNASGRRTSDVRRP  3.07
17. TPSASVTTTSNASGRRTSDVRRP  3.07
18. TSKASVTTTSNASGRRTSDVRRP  2.86
19. TTSASVTTTSNASGRRTSDVRRP  2.82
20. TSEASVTTTSNASGRRTSDVRRP  2.8
21. TSSAGVTTTSNASGRRTSDVRRP  2.79
22. TSAASVTTTSNASGRRTSDVRRP  2.61
23. TSSHSVTTTSNASGRRTSDVRRP  2.6
24. TSDASVTTTSNASGRRTSDVRRP  2.57
25. TGSASVTTTSNASGRRTSDVRRP  2.56
26. QSSASVTTTSNASGRRTSDVRRP  2.54
27. TSHASVTTTSNASGRRTSDVRRP  2.54
28. TSSYSVTTTSNASGRRTSDVRRP  2.51
29. TSSAAVTTTSNASGRRTSDVRRP  2.49
30. TSSADVTTTSNASGRRTSDVRRP  2.48
31. TDSASVTTTSNASGRRTSDVRRP  2.46
32. DSSASVTTTSNASGRRTSDVRRP  2.46
33. TSSWSVTTTSNASGRRTSDVRRP  2.44
34. WSSASVTTTSNASGRRTSDVRRP  2.43
35. VSSASVTTTSNASGRRTSDVRRP  2.42
36. TSSESVTTTSNASGRRTSDVRRP  2.39
37. TSSAIVTTTSNASGRRTSDVRRP  2.37
38. ESSASVTTTSNASGRRTSDVRRP  2.33
39. TSIASVTTTSNASGRRTSDVRRP  2.32
40. ISSASVTTTSNASGRRTSDVRRP  2.25
41. TSSGSVTTTSNASGRRTSDVRRP  2.25
42. HSSASVTTTSNASGRRTSDVRRP  2.22
43. TSQASVTTTSNASGRRTSDVRRP  2.19
44. TSSNSVTTTSNASGRRTSDVRRP  2.16
45. TYSASVTTTSNASGRRTSDVRRP  2.08
46. TFSASVTTTSNASGRRTSDVRRP  2.04
47. TSSQSVTTTSNASGRRTSDVRRP  2.03
48. TLSASVTTTSNASGRRTSDVRRP  2.02
49. TSSTSVTTTSNASGRRTSDVRRP  2.02
50. TSLASVTTTSNASGRRTSDVRRP  1.99
51. TSCASVTTTSNASGRRTSDVRRP  1.96
52. TSVASVTTTSNASGRRTSDVRRP  1.93
53. TSTASVTTTSNASGRRTSDVRRP  1.81
54. TSSPSVTTTSNASGRRTSDVRRP  1.7
55. TSWASVTTTSNASGRRTSDVRRP  1.65
56. TSYASVTTTSNASGRRTSDVRRP  1.46
57. NSSASVTTTSNASGRRTSDVRRP  1.34
58. TQSASVTTTSNASGRRTSDVRRP  1.06
59. TSSSSVTTTSNASGRRTSDVRRP  1.03

Variants of: B2
Test: as above
Settings: c terminus: a fixed tail appended

In order of rising protein stability index:
1. TFHLPRECLPENLGGYVKIDLATW  1.31
2. TQHLPRECLPTNLGGYVKIDLATW  1.45
3. TQHLPRECLPENLGGYLKIDLATW  1.48
4. TQHLPRECLPEWLGGYVKIDLATW  1.51
5. TQHLPRECLPERLGGYVKIDLATW  1.53
6. TQHLMRECLPENLGGYVKIDLATW  1.53
7. TQHLPRECLPEFLGGYVKIDLATW  1.55
8. TQRLPRECLPENLGGYVKIDLATW  1.56
9. TQHLVRECLPENLGGYVKIDLATW  1.57
10. MQHLPRECLPENLGGYVKIDLATW  1.57
11. TQHLPRECGPENLGGYVKIDLATW  1.61
12. TQHLPRECLPRNLGGYVKIDLATW  1.62
13. TQHLPRGCLPENLGGYVKIDLATW  1.62
14. TQHLPRECLAENLGGYVKIDLATW  1.64
15. TQVLPRECLPENLGGYVKIDLATW  1.64
16. TQYLPRECLPENLGGYVKIDLATW  1.66
17. TVHLPRECLPENLGGYVKIDLATW  1.66
18. TQHLPCECLPENLGGYVKIDLATW  1.69
19. TQHLPRECLPENLGGYVKIMLATW  1.69
20. TQHLPRECLPENLGGYVKIPLATW  1.69
21. TQHLPRERLPENLGGYVKIDLATW  1.69
22. TQHLPRECLGENLGGYVKIDLATW  1.72
23. TQHLPRECHPENLGGYVKIDLATW  1.73
24. VQHLPRECLPENLGGYVKIDLATW  1.74
25. TQHLPRFCLPENLGGYVKIDLATW  1.74
26. TQHLPRECSPENLGGYVKIDLATW  1.75
27. TQHLPRECLPELLGGYVKIDLATW  1.76
28. TRHLPRECLPENLGGYVKIDLATW  1.76
29. TQHLPRECLPYNLGGYVKIDLATW  1.77
30. TQHLPRECLKENLGGYVKIDLATW  1.77
31. TQHLPREGLPENLGGYVKIDLATW  1.78
32. TQHLPRECLPKNLGGYVKIDLATW  1.79
33. TQHAPRECLPENLGGYVKIDLATW  1.8
34. TQHSPRECLPENLGGYVKIDLATW  1.8
35. TQHLPRECLCENLGGYVKIDLATW  1.8
36. TQHLPRECLPENLGGYVKIDLATF  1.8
37. TQHLPFECLPENLGGYVKIDLATW  1.81
38. TQHLPRECIPENLGGYVKIDLATW  1.85
39. TQHLPRECLWENLGGYVKIDLATW  1.85
40. TQHLPRNCLPENLGGYVKIDLATW  1.86
41. TQHLSRECLPENLGGYVKIDLATW  1.89
42. TQHLPRECLPENLGGYWKIDLATW  1.89
43. TQHLPRECLPENLGGYVKIRLATW  1.9
44. TQHLPRECLPENLGGYVKIDLTTW  1.9
45. TQHLPRECLPEQLGGYVKIDLATW  1.91
46. TQHLPRECLPENYGGYVKIDLATW  1.91
47. TQHLPRECLPENIGGYVKIDLATW  1.91
48. TQHLPRECLPENLGGYVKIDLATY  1.91
49. TQHLTRECLPENLGGYVKIDLATW  1.92
50. TQLLPRECLPENLGGYVKIDLATW  1.92
51. TQHLPRECLPEDLGGYVKIDLATW  1.93
52. TQHLPRWCLPENLGGYVKIDLATW  1.93
53. TQHLPRECYPENLGGYVKIDLATW  1.97
54. TQHLPRECLPENLGGYVQIDLATW  1.97
55. TQHLPRECLPENGGGYVKIDLATW  1.98
56. TQHLPIECLPENLGGYVKIDLATW  1.99
57. TTHLPRECLPENLGGYVKIDLATW  1.99
58. TQHLPRECLPENLGGYVKIDLQTW  2.01
59. TQHLPREVLPENLGGYVKIDLATW  2.02
60. TQHLPRECLPENLGGYVKIDLASW  2.02
61. TPHLPRECLPENLGGYVKIDLATW  2.02
62. TQKLPRECLPENLGGYVKIDLATW  2.03
63. TQHLPRESLPENLGGYVKIDLATW  2.04
64. TQHLPRECLMENLGGYVKIDLATW  2.04
65. TQHLPRECLPENLGGYVKIDLATV  2.06
66. TQHLPRECLPENLGGYVKLDLATW  2.06
67. TQHLPRECLPENLGGYVKIDLANW  2.06
68. HQHLPRECLPENLGGYVKIDLATW  2.07
69. TQHLPRECLPENLGGYVKIALATW  2.07
70. TQHLPAECLPENLGGYVKIDLATW  2.08
71. TQHLPRECLPENLGGYVKIDLVTW  2.08
72. TEHLPRECLPENLGGYVKIDLATW  2.08
73. TQHLPRECLPENLGGYVKIDLWTW  2.09
74. TQGLPRECLPENLGGYVKIDLATW  2.1
75. TQHLPRECLPENLGRYVKIDLATW  2.11
76. TCHLPRECLPENLGGYVKIDLATW  2.11
77. TQHLPRECLPENLGGYVKVDLATW  2.12
78. TQHLPRECLPENLGIYVKIDLATW  2.16
79. TQHLPRECLPENLGGYVKIDHATW  2.17
80. TQHLARECLPENLGGYVKIDLATW  2.18
81. NQHLPRECLPENLGGYVKIDLATW  2.18
82. TQHLPRYCLPENLGGYVKIDLATW  2.19
83. TQHLPRECLPENLNGYVKIDLATW  2.19
84. TQHLPRDCLPENLGGYVKIDLATW  2.2
85. TQHLPRECLPENLGGYPKIDLATW  2.2
86. TQHLPRECDPENLGGYVKIDLATW  2.24
87. TQHLPRECLPENLGGYIKIDLATW  2.24
88. TQHLDRECLPENLGGYVKIDLATW  2.26
89. TQHLPVECLPENLGGYVKIDLATW  2.26
90. TQHLPRECLPENLGGYVKIDTATW  2.27
91. TQHLPRECLPENMGGYVKIDLATW  2.27
92. TQHLPREQLPENLGGYVKIDLATW  2.29
93. TQHLPRECLPENLGGYVKCDLATW  2.3
94. YQHLPRECLPENLGGYVKIDLATW  2.31
95. TQHLPQECLPENLGGYVKIDLATW  2.31
96. TQFLPRECLPENLGGYVKIDLATW  2.35
97. TQHLPRECLPENLGGYNKIDLATW  2.36
98. TQHLPRECLPENLGGYVKIDLADW  2.37
99. TQHMPRECLPENLGGYVKIDLATW  2.38
100. TQHLPRECLPENLPGYVKIDLATW  2.38
101. TQHLPRECLPEALGGYVKIDLATW  2.41
102. TQHLPRECLPENSGGYVKIDLATW  2.41
103. TQHCPRECLPENLGGYVKIDLATW  2.43
104. TQHLPRECLPENRGGYVKIDLATW  2.43
105. TQHLPRECLEENLGGYVKIDLATW  2.44
106. TQHLPRECLPENLGGYVKYDLATW  2.46
107. TQHLPRECKPENLGGYVKIDLATW  2.47
108. TQHLPRECLPENLGGYVKIDLPTW  2.49
109. TQHLPRRCLPENLGGYVKIDLATW  2.5
110. TQHLPRECLPENLGGYQKIDLATW  2.5
111. TQHLPRECLPENAGGYVKIDLATW  2.5
112. TQHLPGECLPENLGGYVKIDLATW  2.51
113. WQHLPRECLPENLGGYVKIDLATW  2.54
114. TQHLPRECLPENLGPYVKIDLATW  2.63
115. TQHLPRECLPENLGKYVKIDLATW  2.63
116. TQHLPRECLPENLGGYVKIYLATW  2.68
117. TQHLPRECLPENLGGYVKIHLATW  2.68
118. TQHLPRECLPENLGGYVKIDSATW  2.73
119. TQHLPRECLPENLGMYVKIDLATW  2.81
120. TQHLLRECLPENLGGYVKIDLATW  2.83
121. TQHLPRECLPENLGWYVKIDLATW  2.88
122. TQHLPRECLPENLGGYVKTDLATW  2.94
123. TQHLPRECLPENLGGYVKRDLATW  2.96
124. TQHLPRECLPENLGGPVKIDLATW  3.04
125. TQHLPRECLPENLGGYVKIWLATW  3.09
126. TQHLPRECLPENLGGYVKPDLATW  3.11
127. TQHLPRECLPENLGGYKKIDLATW  3.12
128. TQHLPRECLPENLGGYVKIDLATQ  3.13
129. TQHLPRECLPENLGGYVKIDLATN  3.51
130. TQHLPRECLPENLGGYVKIDLATK  3.59
131. TQHLPRECLPENLGGYVFIDLATW  3.63
